From the Immune Epitope Database (IEDB)
Values belong to the sequence of their own block, whether it stands above or below them.

What was measured:
HLA-B*40:01 = assay: IEDB peptide-MHC binding, purified MHC/competitive/radioactivity; filed as Kd, often an IC50 or EC50 that approximates it; ≥ and ≤ were set here for values at or beyond the usual limits of such assays
HLA-B*44:02 = assay: as above
HLA-B*44:03 = assay: as above
HLA-A*02:01 [1] = assay: as above
HLA-A*02:03 = assay: as above; conditions: source organism: Homo sapiens
HLA-A*23:01 = assay: as above; conditions: source organism: Dengue virus 2 Jamaica/1409/1983
HLA-A*24:02 [2] = assay: as above; conditions: source organism: Dengue virus 2 Jamaica/1409/1983
HLA-A*02:01 [3] = assay: IEDB peptide-MHC binding, purified MHC/competitive/fluorescence; ≥ and ≤ were set here for values at or beyond the usual limits of such assays; conditions: source organism: Zaire ebolavirus
HLA-A*24:02 [4] = assay: as above
HLA-A*26:01 [5] = assay: IEDB peptide-MHC binding, purified MHC/competitive/radioactivity; filed as Kd, often an IC50 or EC50 that approximates it; ≥ and ≤ were set here for values at or beyond the usual limits of such assays
HLA-A*30:01 = assay: as above
HLA-A*26:01 [6] = assay: IEDB peptide-MHC binding, purified MHC/direct/fluorescence; filed as Kd, often an IC50 or EC50 that approximates it; ≥ and ≤ were set here for values at or beyond the usual limits of such assays
HLA-A*30:02 = assay: IEDB peptide-MHC binding, purified MHC/competitive/radioactivity; filed as Kd, often an IC50 or EC50 that approximates it; ≥ and ≤ were set here for values at or beyond the usual limits of such assays; conditions: source organism: Dengue virus 4 Philippines/H241/1956
HLA-B*53:01 = assay: as above; conditions: source organism: Dengue virus 2 Jamaica/1409/1983
HLA-A*01:01 = assay: as above; conditions: source organism: Dengue virus 1 Brazil/97-11/1997
HLA-A*33:01 = assay: as above; conditions: source organism: Dengue virus 1 Brazil/97-11/1997
HLA-B*08:01 = assay: as above
[7] = source organism: Dengue virus 4 Philippines/H241/1956
[8] = source organism: Dengue virus 2 Jamaica/1409/1983
[9] = source organism: Dengue virus 1 Brazil/97-11/1997
[10] = source organism: Dengue virus 3 Martinique/1243/1999

Sequence: AEGVITQDDM
Kd (HLA-B*40:01; [7]): 1310 nM

Sequence: AERTGEPDY
Kd (HLA-B*44:02; [7]): 391 nM
Kd (HLA-B*44:03; [7]): 851 nM

Kd (HLA-A*02:01 [1]; source organism: Homo sapiens): 128 nM
Kd (HLA-A*02:03): 7.87 nM
Sequence: ALPHAILRL

Sequence: AYTIGTTHF
Kd (HLA-A*23:01): 126 nM
Kd (HLA-A*24:02 [2]): 774 nM

Sequence: CETCVYNMM
Kd (HLA-B*44:02; [8]): 92.2 nM
Kd (HLA-B*40:01; [8]): 52.1 nM

Sequence: CLPAAPDGI
IC50 (HLA-A*02:01 [3]): 3840 nM
IC50 (HLA-A*24:02 [4]; source organism: Zaire ebolavirus): 37400 nM

Sequence: CTILAAVSVS
Kd (HLA-A*26:01 [5]; [8]): ≥ 55900 nM
Kd (HLA-A*30:01; [8]): 2830 nM

Sequence: DKFRKSSFF
IC50 (HLA-A*24:02 [4]; source organism: Sudan ebolavirus): 52200 nM

Sequence: DRERLKVFL
IC50 (HLA-A*24:02 [4]; source organism: Variola virus): ≥ 169000 nM

Sequence: EERDIPERSW
Kd (HLA-B*44:02; [9]): 72.4 nM

Sequence: EEYVDYMPV
Kd (HLA-B*40:01; [7]): 190 nM

Sequence: EGINELGAM
Kd (HLA-A*26:01 [6]; source organism: Vibrio vulnificus CMCP6): 48 nM

Sequence: EKTKTDFGFY
Kd (HLA-A*26:01 [5]; [7]): 9240 nM
Kd (HLA-A*30:02): 20.1 nM

Sequence: ELMMATIGIA
Kd (HLA-A*26:01 [5]; [8]): 65 nM

Sequence: EPIPMSTYGW
Kd (HLA-A*26:01 [5]; [8]): ≥ 40500 nM
Kd (HLA-B*53:01): 334 nM

Sequence: ETWALRHPGF
Kd (HLA-A*26:01 [5]; [9]): 666 nM
Kd (HLA-A*01:01): ≥ 41200 nM
Kd (HLA-A*30:01; [9]): 1900 nM

Sequence: EVADRILFM
Kd (HLA-A*26:01 [6]; source organism: Bacillus cereus AH1134): 3 nM

Sequence: EVKTCIWPK
Kd (HLA-A*30:01; [9]): 1350 nM
Kd (HLA-A*33:01): 2.82 nM

Sequence: FFKCFRYVF
Kd (HLA-B*08:01; source organism: Vaccinia virus Copenhagen): 10.9 nM

Sequence: GEKKKLRPRW
Kd (HLA-B*44:02; [10]): 342 nM
Kd (HLA-B*44:03; [10]): 2600 nM

Sequence: GFKKRVNVF
Kd (HLA-B*08:01; source organism: Vaccinia virus WR): 110 nM

Sequence: GMSGGNQGA
Kd (HLA-A*02:01 [1]; source organism: Lassa virus Josiah): 12500 nM
